Data set [1] deals with T1, CPSF160FL;WDR33 M1-K410;CPSF30FL;Fip1FL (Homo sapiens;Homo sapiens;Homo …, UniProt Q10570;Q9C0J8;O95639-3;Q6UN15-4 1-1443;1-410;1-243;1-378, |||). The data set is described as follows: fluorescence polarization; error 0.09 in text, 0.90 in Table 2; 20 mM Tris pH 7.5, 150 mM NaCl, 1 mM DTT, 0.05% Tween 20, 25 C, 0.1 nM labelled RNA. Particulars: protein: recombinant;recombinant;recombinant;recombinant; tags: His6 (438B vector; Ni-NTA and Streptactin purified);;; copies: 1;1;1;1; label: 5' Atto532. (In general: Fluorescence polarisation rises when a labelled molecule tumbles more slowly, as on binding a larger partner.)

Data set [2] has as its target CPSF160FL;WDR33 M1-K410 R49A/K50A;CPSF30 ZF1-3 (Homo sapiens;Homo sapiens;Homo sapiens, UniProt Q10570;Q9C0J8;O95639-3 1-1443;1-410;1-117, |R49A;K50A|). The data set is described as follows: fluorescence polarization; 20 mM Tris pH 7.5, 150 mM NaCl, 1 mM DTT, 0.05% Tween 20, 25 C, 0.1 nM labelled RNA. Particulars: protein: recombinant;recombinant;recombinant; tags: His6 (438B vector); copies: 1;1;1; label: 5' Atto532.

Data set [3] concerns the target CPSF160FL;WDR33 M1-K410;CPSF30 ZF1-3 (Homo sapiens;Homo sapiens;Homo sapiens, UniProt Q10570;Q9C0J8;O95639-3 1-1443;1-410;1-117, ||). Described as above. Particulars: protein: recombinant;recombinant;recombinant; tags: His6 (438B vector; Ni-NTA and Streptactin purified);; copies: 1;1;1; label: 5' Atto532.
Data set [4] addresses CPSF160FL;WDR33 M1-K410 K46A/R47A;CPSF30 ZF1-3 (Homo sapiens;Homo sapiens;Homo sapiens, UniProt Q10570;Q9C0J8;O95639-3 1-1443;1-410;1-117, |K46A;R47A|). The description is as above. Particulars: protein: recombinant;recombinant;recombinant; tags: His6 (438B vector); copies: 1;1;1; label: 5' Atto532.
Data set [5] addresses CPSF160FL;WDR33 M1-K410;CPSF30 ZF1-5;Fip1CD (Homo sapiens;Homo sapiens;Homo …, UniProt Q10570;Q9C0J8;O95639-3;Q6UN15-4 1-1443;1-410;1-169;130-195, |||). The data set is described as above. Particulars: protein: recombinant;recombinant;recombinant;recombinant; tags: His6 (438B vector; Ni-NTA and Streptactin purified);;; copies: 1;1;1;1; label: 5' Atto532.
In data set [6] the target is T1, CPSF160FL;WDR33 M1-K410;CPSF30FL;Fip1FL. The data set is described as follows: fluorescence polarization; two repeats; 20 mM Tris pH 7.5, 150 mM NaCl, 1 mM DTT, 0.05% Tween 20, 25 C, 0.1 nM labelled RNA. Particulars: protein: recombinant;recombinant;recombinant;recombinant; tags: His6 (438B vector; Ni-NTA and Streptactin purified);;; copies: 1;1;1;1; label: 5' Atto532.

T1 sequence (Q10570 whole entry, chain 1 of 4): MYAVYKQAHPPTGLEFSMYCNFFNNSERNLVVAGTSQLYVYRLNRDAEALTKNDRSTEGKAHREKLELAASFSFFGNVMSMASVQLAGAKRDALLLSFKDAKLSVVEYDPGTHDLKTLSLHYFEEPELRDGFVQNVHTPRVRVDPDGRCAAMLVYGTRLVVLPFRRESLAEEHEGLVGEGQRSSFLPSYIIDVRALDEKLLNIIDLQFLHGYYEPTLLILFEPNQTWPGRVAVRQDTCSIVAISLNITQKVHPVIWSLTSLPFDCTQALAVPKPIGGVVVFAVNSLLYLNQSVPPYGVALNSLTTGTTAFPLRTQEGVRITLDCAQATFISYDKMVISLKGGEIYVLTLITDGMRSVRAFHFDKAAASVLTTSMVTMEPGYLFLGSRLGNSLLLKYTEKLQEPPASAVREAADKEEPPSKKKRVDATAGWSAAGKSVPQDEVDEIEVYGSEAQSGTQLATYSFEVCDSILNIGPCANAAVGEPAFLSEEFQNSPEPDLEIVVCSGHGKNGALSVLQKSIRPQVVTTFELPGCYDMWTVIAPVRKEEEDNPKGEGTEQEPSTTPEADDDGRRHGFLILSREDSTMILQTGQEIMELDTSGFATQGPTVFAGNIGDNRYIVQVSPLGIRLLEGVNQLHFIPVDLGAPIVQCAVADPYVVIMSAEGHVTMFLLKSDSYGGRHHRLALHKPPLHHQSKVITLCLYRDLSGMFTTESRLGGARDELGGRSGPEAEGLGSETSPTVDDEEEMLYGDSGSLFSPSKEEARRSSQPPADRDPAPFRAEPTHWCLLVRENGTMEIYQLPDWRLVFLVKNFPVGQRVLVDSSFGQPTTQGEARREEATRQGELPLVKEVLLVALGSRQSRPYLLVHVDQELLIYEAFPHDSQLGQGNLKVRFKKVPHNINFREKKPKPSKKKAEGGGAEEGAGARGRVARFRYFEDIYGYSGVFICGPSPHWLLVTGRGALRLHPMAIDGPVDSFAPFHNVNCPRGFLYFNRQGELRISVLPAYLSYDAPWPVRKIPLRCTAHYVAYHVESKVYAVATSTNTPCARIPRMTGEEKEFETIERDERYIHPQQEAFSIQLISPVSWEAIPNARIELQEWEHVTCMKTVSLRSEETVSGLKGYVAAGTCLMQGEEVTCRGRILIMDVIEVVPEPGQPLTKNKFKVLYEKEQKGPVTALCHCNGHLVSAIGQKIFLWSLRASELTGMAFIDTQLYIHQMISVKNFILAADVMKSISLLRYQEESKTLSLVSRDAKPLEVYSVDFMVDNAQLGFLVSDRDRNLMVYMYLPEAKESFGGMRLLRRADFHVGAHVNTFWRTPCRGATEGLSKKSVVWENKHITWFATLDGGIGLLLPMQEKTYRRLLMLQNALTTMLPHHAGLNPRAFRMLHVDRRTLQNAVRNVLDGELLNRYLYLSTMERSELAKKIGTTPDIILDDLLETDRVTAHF
T1 sequence (Q9C0J8 1-410, chain 2 of 4): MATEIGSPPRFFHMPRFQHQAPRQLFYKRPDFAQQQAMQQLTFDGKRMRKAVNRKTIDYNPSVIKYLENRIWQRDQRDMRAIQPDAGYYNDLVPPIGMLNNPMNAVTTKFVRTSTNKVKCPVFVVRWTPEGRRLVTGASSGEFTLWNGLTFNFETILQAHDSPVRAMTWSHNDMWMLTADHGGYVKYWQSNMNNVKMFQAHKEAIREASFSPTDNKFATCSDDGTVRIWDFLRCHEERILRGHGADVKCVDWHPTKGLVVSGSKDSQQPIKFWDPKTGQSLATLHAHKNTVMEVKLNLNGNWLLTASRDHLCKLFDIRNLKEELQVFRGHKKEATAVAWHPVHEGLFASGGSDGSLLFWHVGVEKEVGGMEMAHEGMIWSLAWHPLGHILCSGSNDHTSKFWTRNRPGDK
T1 sequence (O95639 other isoform, or with tags, fused parts or gaps |||, chain 3 of 4): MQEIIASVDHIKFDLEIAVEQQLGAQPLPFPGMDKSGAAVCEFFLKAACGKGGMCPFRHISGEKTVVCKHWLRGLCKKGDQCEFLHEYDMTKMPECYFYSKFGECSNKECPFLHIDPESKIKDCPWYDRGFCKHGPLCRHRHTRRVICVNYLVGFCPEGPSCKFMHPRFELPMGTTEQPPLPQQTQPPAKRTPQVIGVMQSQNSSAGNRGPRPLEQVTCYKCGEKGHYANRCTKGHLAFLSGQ
T1 sequence (Q6UN15 other isoform, or with tags, fused parts or gaps |||, chain 4 of 4): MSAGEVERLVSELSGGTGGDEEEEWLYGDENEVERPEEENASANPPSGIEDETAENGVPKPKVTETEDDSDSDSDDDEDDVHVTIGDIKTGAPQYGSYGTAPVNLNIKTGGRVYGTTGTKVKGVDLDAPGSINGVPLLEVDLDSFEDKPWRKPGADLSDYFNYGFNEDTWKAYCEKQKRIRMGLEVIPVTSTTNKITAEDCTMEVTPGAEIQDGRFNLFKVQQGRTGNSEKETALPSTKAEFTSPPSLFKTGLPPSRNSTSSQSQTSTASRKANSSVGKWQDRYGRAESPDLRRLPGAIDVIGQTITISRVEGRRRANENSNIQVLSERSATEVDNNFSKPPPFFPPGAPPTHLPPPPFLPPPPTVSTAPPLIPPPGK
Sequence of CPSF160FL;WDR33 M1-K410;CPSF30 ZF1-5;Fip1CD (Q10570 whole entry, chain 1 of 4): as the sequence (Q10570 whole entry, chain 1 of 4) above
Sequence of CPSF160FL;WDR33 M1-K410;CPSF30 ZF1-5;Fip1CD (Q9C0J8 1-410, chain 2 of 4): as the sequence (Q9C0J8 1-410, chain 2 of 4) above
Sequence of CPSF160FL;WDR33 M1-K410;CPSF30 ZF1-5;Fip1CD (O95639 1-169, chain 3 of 4): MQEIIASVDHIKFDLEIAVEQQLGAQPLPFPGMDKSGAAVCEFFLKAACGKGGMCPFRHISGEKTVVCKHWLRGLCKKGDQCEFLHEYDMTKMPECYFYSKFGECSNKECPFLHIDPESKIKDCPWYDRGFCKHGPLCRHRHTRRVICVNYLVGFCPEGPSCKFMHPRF
Sequence of CPSF160FL;WDR33 M1-K410;CPSF30 ZF1-5;Fip1CD (Q6UN15 145-210, chain 4 of 4): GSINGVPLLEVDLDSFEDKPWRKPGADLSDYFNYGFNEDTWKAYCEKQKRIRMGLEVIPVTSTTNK
Sequence of CPSF160FL;WDR33 M1-K410;CPSF30 ZF1-3 (Q10570 whole entry, chain 1 of 3): as the sequence (Q10570 whole entry, chain 1 of 4) above
Sequence of CPSF160FL;WDR33 M1-K410;CPSF30 ZF1-3 (Q9C0J8 1-410, chain 2 of 3): as the sequence (Q9C0J8 1-410, chain 2 of 4) above
Sequence of CPSF160FL;WDR33 M1-K410;CPSF30 ZF1-3 (O95639 1-117, chain 3 of 3): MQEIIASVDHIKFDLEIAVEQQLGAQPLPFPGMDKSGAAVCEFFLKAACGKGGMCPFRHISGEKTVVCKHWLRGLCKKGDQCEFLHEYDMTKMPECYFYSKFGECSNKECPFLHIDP
Sequence of CPSF160FL;WDR33 M1-K410 K46A/R47A;CPSF30 ZF1-3 (Q10570 whole entry, chain 1 of 3): as the sequence (Q10570 whole entry, chain 1 of 4) above
Sequence of CPSF160FL;WDR33 M1-K410 K46A/R47A;CPSF30 ZF1-3 (Q9C0J8 1-410 K46A/R47A, chain 2 of 3): as the sequence (Q9C0J8 1-410, chain 2 of 4) above, with K46A, R47A counted along it
Sequence of CPSF160FL;WDR33 M1-K410 K46A/R47A;CPSF30 ZF1-3 (O95639 1-117, stated change not applied, chain 3 of 3): as the sequence (O95639 1-117, chain 3 of 3) above
Sequence of CPSF160FL;WDR33 M1-K410 R49A/K50A;CPSF30 ZF1-3 (Q10570 whole entry, chain 1 of 3): as the sequence (Q10570 whole entry, chain 1 of 4) above
Sequence of CPSF160FL;WDR33 M1-K410 R49A/K50A;CPSF30 ZF1-3 (Q9C0J8 1-410 R49A/K50A, chain 2 of 3): as the sequence (Q9C0J8 1-410, chain 2 of 4) above, with R49A, K50A counted along it
Sequence of CPSF160FL;WDR33 M1-K410 R49A/K50A;CPSF30 ZF1-3 (O95639 1-117, chain 3 of 3): as the sequence (O95639 1-117, chain 3 of 3) above

As to CACACAAUAAAGGCAA (ssRNA) [L3 PAS RNA wild-type (AAUAAA)], the dissociation constant Kd (commonly a measure of binding affinity in units of concentration) was 0.65 ± 0.09 nM in data set [1]; 2.42 ± 0.66 nM in data set [2]; under 0.1 nM in data set [3]; 7.78 ± 0.78 nM in data set [4]; 0.11 ± 0.03 nM in data set [5].

Take CACACAAGAAAGGCAA (ssRNA) [L3 PAS RNA mutant (AAGAAA)]: the Kd in data set [3] came out at 43 ± 2 nM; in data set [5], 70 ± 6 nM; in data set [6] it was 120 ± 23 nM.

These data come from paper PMC5760199, “Structural insights into the assembly and polyA signal recognition mechanism of the human CPSF complex”.
